Substrate in the series: Nc1ncnc2c1ncn2[C@@H]1O[C@H](COP(=O)(O)OP(=O)(O)OP(=O)(O)O)[C@@H](O)[C@H]1O
The experiment in a line: NADH-coupled ATPase assay (pyruvate kinase / lactate dehydrogenase), fit with Hill coefficient. The class given is biochemical, Mycolicibacterium smegmatis. The following applies: 0.1 μM complex in 0.05% DDM micelles, 20 mM Tris-HCl pH 8.0, 150 mM NaCl, 5 mM MgCl2, 10% glycerol, 37 °C, Michaelis-Menten with Hill term (n = 1.28 ± 0.57).

Broadly, the Km is the concentration of substrate that gives half-maximal velocity.

B1: YrbE1A/B-MceG (core ABC transporter of the Mce1 system) (Mycolicibacterium smegmatis MC2 155) (protein)
chain: MGVQIDVTGLSKSFGSSKIWEDVTMSIPAGEVSVLLGPSGTGKSVFLKSLIGLLRPERGSIVIDGTDILQCSAKELYEIRTLFGVLFQDGALFGSMNIYDNTAFPLREHTKKSESEIRKIVMEKLDLVGMPNDGHKFPGEISGGMRKRAGLARALVLDPEIILCDEPDSGLDPVRTAYLSQLLIDINAQIDATVLIVTHNINIARTVPDNMGMLFRKQLVMFGPREVLLTSEEPVVKQFLNGRRIGPIGMSEEKDEATAAAEQALVDAGQHDGGVEEIEGVPPQLQATPGMPERKAVARRKARVREILHTLPPAAQAAILEELDRDQPQLSAPTTQTAATAPVENYDDSPTGVIEVPKQA
notes: YrbE1A, His6-YrbE1B and MceG co-expressed in E. coli BL21(λDE3); DDM-solubilised, TALON and SEC purified; with ABC transporter permease YrbE1A (Mce1 transmembrane domain protein); ABC transporter permease YrbE1B (Mce1 transmembrane domain protein)
As to B1, the Km was found to be 284 ± 311 µM and the kcat was found to be 0.184 ± 0.125 μM ATP s^−1/μM complex.

Source of the values: publication PMC10517005, “A conserved membrane protein negatively regulates Mce1 complexes in mycobacteria” (Nature Communications, 2023).
